Laboratory results from article PMC10817169, “The universal suppressor mutation restores membrane budding defects in the HSV-1 nuclear egress complex by stabilizing the oligomeric lattice” (PLOS Pathogens, 2024).
Positions count from the first letter of the chain named. Numbers in names are those of the source.

T1: UL31 1-306 (wild type) (HSV-1, UniProt P10215 1-306)
T1 construct: also called WT UL31; UL31 chain of NEC220
T1 sequence: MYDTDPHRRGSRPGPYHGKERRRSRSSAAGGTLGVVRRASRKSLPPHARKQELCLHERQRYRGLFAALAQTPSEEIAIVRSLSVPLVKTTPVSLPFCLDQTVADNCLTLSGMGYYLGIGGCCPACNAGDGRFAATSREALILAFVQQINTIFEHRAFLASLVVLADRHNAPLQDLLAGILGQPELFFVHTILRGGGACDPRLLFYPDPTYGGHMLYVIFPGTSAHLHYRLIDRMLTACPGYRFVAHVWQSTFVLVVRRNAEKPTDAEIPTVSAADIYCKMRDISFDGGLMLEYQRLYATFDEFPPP

T2: UL31 1-306 R229L_(UL31) (HSV-1, UniProt P10215 1-306, R229L)
T2 construct: also called SUP_(UL31); UL31 chain of NEC220-SUP_(UL31)
T2 sequence: T1 sequence with R229L

B1: UL34 15-185 D35A_(UL34)/E37A_(UL34) (domain or fragment)
chain: AFEGLVQRIRLIVPSTLRGGAGAAGPYSPSSLPSRCAFQFHGHDGSDESFPIEYVLRLMNDWAEVPCNPYLRIQNTGVSVLFQGFFHRPHNAPGGAITPERTNVILGSTETTGLSLGDLDTIKGRLGLDARPMMASMWISCFVRMPRVQLAFRFMGPEDAGRTRRILCRAA
notes: also called DN_(UL34); UL34 chain of NEC185Δ50-DN_(UL34)/SUP_(UL31); not shown: GST, N-terminal, cleaved
B2: NEC185Δ50-DN_(UL34)/SUP_(UL31) (complex)
chain 1: QELCLHERQRYRGLFAALAQTPSEEIAIVRSLSVPLVKTTPVSLPFCLDQTVADNCLTLSGMGYYLGIGGCCPACNAGDGRFAATSREALILAFVQQINTIFEHRAFLASLVVLADRHNAPLQDLLAGILGQPELFFVHTILRGGGACDPRLLFYPDPTYGGHMLYVIFPGTSAHLHYLLIDRMLTACPGYRFVAHVWQSTFVLVVRRNAEKPTDAEIPTVSAADIYCKMRDISFDGGLMLEYQRLYATFDEFPPP
chain 2: B1 chain
notes: also called NEC-DN_(UL34)/SUP_(UL31) crystallization construct; NEC185Δ50-DN34/SUP31; source: E. coli BL21(DE3) LoBSTr, co-expressed, purified (Ni Sepharose, Glutathione Sepharose, tags cleaved, Talon, Superdex 75)
B3: NEC185Δ50-SUP_(UL31) (complex)
chain 1: B2 chain 1
chain 2: B1 chain with A21D, A23E
notes: also called NEC-SUP_(UL31) crystallization construct; source: E. coli BL21(DE3) LoBSTr, co-expressed, purified (Ni Sepharose, Glutathione Sepharose, tags cleaved, Talon, Superdex 75)
B4: UL34 15-185 (domain or fragment)
chain: B1 chain with A21D, A23E
notes: also called UL34 chain of NEC185Δ50-SUP_(UL31); not shown: GST, N-terminal, cleaved
B5: UL31 51-306 R229L (SUP_(UL31)Δ50-306) (domain or fragment)
chain: B2 chain 1
notes: also called R229L_(UL31)Δ50-306; UL31 chain of NEC185Δ50-SUP_(UL31)
B6: UL34 1-220 (wild type) (domain or fragment)
chain: MAGLGKPYTGHPGDAFEGLVQRIRLIVPSTLRGGDGEAGPYSPSSLPSRCAFQFHGHDGSDESFPIEYVLRLMNDWAEVPCNPYLRIQNTGVSVLFQGFFHRPHNAPGGAITPERTNVILGSTETTGLSLGDLDTIKGRLGLDARPMMASMWISCFVRMPRVQLAFRFMGPEDAGRTRRILCRAAEQAITRRRRTRRSREAYGAEAGLGVAGTGFRARGD
notes: also called UL34 chain of NEC220; not shown: GST, N-terminal, cleaved
B7: NEC220-SUP_(UL31) (complex)
chain 1: T1 sequence with R229L
chain 2: B6 chain
notes: also called NEC-SUP_(UL31)
B8: NEC220 (wild-type HSV-1 nuclear egress complex, UL31 1-306 with UL34 1-220) (complex)
chain 1: T1 sequence
chain 2: B6 chain
B9: NEC220-DN_(UL34)/SUP_(UL31) (complex)
chain 1: T1 sequence with R229L
chain 2: B6 chain with D35A, E37A
notes: also called NEC-DN_(UL34)/SUP_(UL31)
B10: UL34 1-220 K137A_(UL34)/R139A_(UL34) (domain or fragment)
chain: B6 chain with K137A, R139A
notes: also called UL34 chain of NEC220-K137A_(UL34)/R139A_(UL34); not shown: GST, N-terminal, cleaved
B11: UL34 1-220 R139A_(UL34) (domain or fragment)
chain: B6 chain with R139A
notes: also called UL34 chain of NEC220-R139A_(UL34); not shown: GST, N-terminal, cleaved
B12: UL34 1-220 D35A_(UL34)/E37A_(UL34) (domain or fragment)
chain: B6 chain with D35A, E37A
notes: also called DN_(UL34); UL34 chain of NEC220-DN_(UL34)/SUP_(UL31); not shown: GST, N-terminal, cleaved
B13: UL34 1-220 K137A_(UL34) (domain or fragment)
chain: B6 chain with K137A
notes: also called UL34 chain of NEC220-K137A_(UL34); not shown: GST, N-terminal, cleaved

How the values were obtained:
[1] = biological target: B5; assay: crystal structure; conditions: both partners purified
crystal structure = biological target: the molecule itself; assay: crystal structure
UL31 1-306 (wild type) [2] = biological target: T1, UL31 1-306 (wild type); assay: cryo-EM structure; cryoET with sub-tomographic averaging of membrane-bound coats; 1 mg/mL NEC with 400 and 800 nm LUVs (POPC:POPS:POPA = 3:1:1), 30 min on ice; conditions: both partners purified
[3] = biological target: the molecule itself; assay: as above
UL31 1-306 (wild type) [4] = biological target: T1, UL31 1-306 (wild type); assay: SEC; co-expressed and co-purified UL31/UL34, tags cleaved, equimolar amounts loaded on Superdex 75 10/300 in 20 mM Na HEPES pH 7.0, 100 mM NaCl, 1 mM TCEP, 4°C; fractions analysed by SDS-PAGE; conditions: both partners purified
UL31 1-306 R229L_(UL31) [5] = biological target: T2, UL31 1-306 R229L_(UL31); assay: as above; conditions: both partners purified
UL31 1-306 R229L_(UL31) [6] = biological target: T2, UL31 1-306 R229L_(UL31); assay: cryo-EM structure; cryoET with sub-tomographic averaging of membrane-bound coats; 1 mg/mL NEC with 400 and 800 nm LUVs (POPC:POPS:POPA = 3:1:1), 30 min on ice; conditions: both partners purified

B1: binds [1].

B2: binds (crystal structure).

In the case of B3, the “stoichiometry N” value (crystal structure) is reported as 6.

B4: binds [1]; binds (crystal structure).

B5: binds (crystal structure).

B6: binds (UL31 1-306 (wild type) [2]).

B7: binds [3].

B8: binds [3].

B9: binds [3].

B10: binds (UL31 1-306 (wild type) [4]); binds (UL31 1-306 R229L_(UL31) [5]).

B11: binds (UL31 1-306 (wild type) [4]).

B12: binds (UL31 1-306 R229L_(UL31) [6]).

B13: binds (UL31 1-306 (wild type) [4]); binds (UL31 1-306 R229L_(UL31) [5]).
